Reference: the supplement of paper PMC5998384

What was measured:
HeLa Kyoto [1] = assay: solubility change mitosis vs G1/S (difference of NP-40 vs SDS log2 ratios) (log2 ratio difference); higher = more soluble in mitosis
HeLa Kyoto [2] = assay: solubility in G1/S (NP-40 vs SDS abundance) (log2 ratio); higher = more soluble; details: cell cycle stage: G1/S
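Throughout, for solubility change mitosis vs G1/S (difference of NP-40 vs SDS log2 ratios): synchronized HeLa Kyoto cells (double thymidine block for G1/S, nocodazole release for mitosis), protein amounts in NP-40 versus SDS lysates quantified by mass spectrometry, three biological replicates.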
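Throughout, for solubility in G1/S (NP-40 vs SDS abundance): HeLa Kyoto cells arrested at G1/S by double thymidine block, proteins quantified by TMT10plex mass spectrometry in mild NP-40 versus SDS extracts, three biological replicates.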

Sequence	solubility change mitosis (log2) (HeLa Kyoto [1])	solubility in G1/S (log2) (HeLa Kyoto [2])
MNLQAQPKAQNKRKRCLFGGQEPAPKEQPPPLQPPQQSIRVKEEQYLGHEGPGGAVSTSQPVELPPPSSLALLNSVVYGPERTSAAMLSQQVASVKWPNSVMAPGRGPERGGGGGVSDSSWQQQPGQPPPHSTWNCHSLSLYSATKGSPHPGVGVPTYYNHPEALKREKAGGPQLDRYVRPMMPQKVQLEVGRPQAPLNSFHAAKKPPNQSLPLQPFQLAFGHQVNRQVFRQGPPPPNPVAAFPPQKQQQQQQPQQQQQQQQAALPQMPLFENFYSMPQQPSQQPQDFGLQPAGPLGQSHLAHHSMAPYPFPPNPDMNPELRKALLQDSAPQPALPQVQIPFPRRSRRLSKEGILPPSALDGAGTQPGQEATGNLFLHHWPLQQPPPGSLGQPHPEALGFPLELRESQLLPDGERLAPNGREREAPAMGSEEGMRAVSTGDCGQVLRGGVIQSTRRRRRASQEANLLTLAQKAVELASLQNAKDGSGSEEKRKSVLASTTKCGVEFSEPSLATKRAREDSGMVPLIIPVSVPVRTVDPTEAAQAGGLDEDGKGPEQNPAEHKPSVIVTRRRSTRIPGTDAQAQAEDMNVKLEGEPSVRKPKQRPRPEPLIIPTKAGTFIAPPVYSNITPYQSHLRSPVRLADHPSERSFELPPYTPPPILSPVREGSGLYFNAIISTSTIPAPPPITPKSAHRTLLRTNSAEVTPPVLSVMGEATPVSIEPRINVGSRFQAEIPLMRDRALAAADPHKADLVWQPWEDLESSREKQRQVEDLLTAACSSIFPGAGTNQELALHCLHESRGDILETLNKLLLKKPLRPHNHPLATYHYTGSDQWKMAERKLFNKGIAIYKKDFFLVQKLIQTKTVAQCVEFYYTYKKQVKIGRNGTLTFGDVDTSDEKSAQEEVEVDIKTSQKFPRVPLPRRESPSEERLEPKREVKEPRKEGEEEVPEIQEKEEQEEGRERSRRAAAVKATQTLQANESASDILILRSHESNAPGSAGGQASEKPREGTGKSRRALPFSEKKKKTETFSKTQNQENTFPCKKCGR [ELMSAN1]	0.257	-0.0645
MDSPGYNCFVDKDKMDAAIQDLGPKELSCTELQELKQLARQGYWAQSHALRGKVYQRLIRDIPCRTVTPDASVYSDIVGKIVGKHSSSCLPLPEFVDNTQVPSYCLNARGEGAVRKILLCLANQFPDISFCPALPAVVALLLHYSIDEAECFEKACRILACNDPGRRLIDQSFLAFESSCMTFGDLVNKYCQAAHKLMVAVSEDVLQVYADWQRWLFGELPLCYFARVFDVFLVEGYKVLYRVALAILKFFHKVRAGQPLESDSVKQDIRTFVRDIAKTVSPEKLLEKAFAIRLFSRKEIQLLQMANEKALKQKGITVKQKSVSLSKRQFVHLAVHAENFRSEIVSVREMRDIWSWVPERFALCQPLLLFSSLQHGYSLARFYFQCEGHEPTLLLIKTTQKEVCGAYLSTDWSERNKFGGKLGFFGTGECFVFRLQPEVQRYEWVVIKHPELTKPPPLMAAEPTAPLSHSASSDPADRLSPFLAARHFNLPSKTESMFMAGGSDCLIVGGGGGQALYIDGDLNRGRTSHCDTFNNQPLCSENFLIAAVEAWGFQDPDTQ [TBC1D24]	-0.16	-0.273
MEPQEERETQVAAWLKKIFGDHPIPQYEVNPRTTEILHHLSERNRVRDRDVYLVIEDLKQKASEYESEAKYLQDLLMESVNFSPANLSSTGSRYLNALVDSAVALETKDTSLASFIPAVNDLTSDLFRTKSKSEEIKIELEKLEKNLTATLVLEKCLQEDVKKAELHLSTERAKVDNRRQNMDFLKAKSEEFRFGIKAAEEQLSARGMDASLSHQSLVALSEKLARLKQQTIPLKKKLESYLDLMPNPSLAQVKIEEAKRELDSIEAELTRRVDMMEL [HAUS1]	0.128	0.463
MASDGARKQFWKRSNSKLPGSIQHVYGAQHPPFDPLLHGTLLRSTAKMPTTPVKAKRVSTFQEFESNTSDAWDAGEDDDELLAMAAESLNSEVVMETANRVLRNHSQRQGRPTLQEGPGLQQKPRPEAEPPSPPSGDLRLVKSVSESHTSCPAESASDAAPLQRSQSLPHSATVTLGGTSDPSTLSSSALSEREASRLDKFKQLLAGPNTDLEELRRLSWSGIPKPVRPMTWKLLSGYLPANVDRRPATLQRKQKEYFAFIEHYYDSRNDEVHQDTYRQIHIDIPRMSPEALILQPKVTEIFERILFIWAIRHPASGYVQGINDLVTPFFVVFICEYIEAEEVDTVDVSGVPAEVLCNIEADTYWCMSKLLDGIQDNYTFAQPGIQMKVKMLEELVSRIDEQVHRHLDQHEVRYLQFAFRWMNNLLMREVPLRCTIRLWDTYQSEPDGFSHFHLYVCAAFLVRWRKEILEEKDFQELLLFLQNLPTAHWDDEDISLLLAEAYRLKFAFADAPNHYKK [TBC1D22A]	-0.253	0.31
MAAVAMTPNPVQTLQEEAVCAICLDYFTDPVSIGCGHNFCRVCVTQLWGGEDEEDRDELDREEEEEDGEEEEVEAVGAGAGWDTPMRDEDYEGDMEEEVEEEEEGVFWTSGMSRSSWDNMDYVWEEEDEEEDLDYYLGDMEEEDLRGEDEEDEEEVLEEVEEEDLDPVTPLPPPPAPRRCFTCPQCRKSFPRRSFRPNLQLANMVQVIRQMHPTPGRGSRVTDQGICPKHQEALKLFCEVDEEAICVVCRESRSHKQHSVVPLEEVVQEYKAKLQGHVEPLRKHLEAVQKMKAKEERRVTELKSQMKSELAAVASEFGRLTRFLAEEQAGLERRLREMHEAQLGRAGAAASRLAEQAAQLSRLLAEAQERSQQGGLRLLQDIKETFNRCEEVQLQPPEVWSPDPCQPHSHDFLTDAIVRKMSRMFCQAARVDLTLDPDTAHPALMLSPDRRGVRLAERRQEVADHPKRFSADCCVLGAQGFRSGRHYWEVEVGGRRGWAVGAARESTHHKEKVGPGGSSVGSGDASSSRHHHRRRRLHLPQQPLLQREVWCVGTNGKRYQAQSSTEQTLLSPSEKPRRFGVYLDYEAGRLGFYNAETLAHVHTFSAAFLGERVFPFFRVLSKGTRIKLCP [TRIM41]	0.254	-0.886
MASGVGAAFEELPHDGTCDECEPDEAPGAEEVCRECGFCYCRRHAEAHRQKFLSHHLAEYVHGSQAWTPPADGEGAGKEEAEVKVEQEREIESEAGEESESEEESESEEESETEEESEDESDEESEEDSEEEMEDEQESEAEEDNQEEGESEAEGETEAESEFDPEIEMEAERVAKRKCPDHGLDLSTYCQEDRQLICVLCPVIGAHQGHQLSTLDEAFEELRSKDSGGLKAAMIELVERLKFKSSDPKVTRDQMKMFIQQEFKKVQKVIADEEQKALHLVDIQEAMATAHVTEILADIQSHMDRLMTQMAQAKEQLDTSNESAEPKAEGDEEGPSGASEEEDT [TRIM44]	-0.202	-0.118
MLGTVKMEGHETSDWNSYYADTQEAYSSVPVSNMNSGLGSMNSMNTYMTMNTMTTSGNMTPASFNMSYANPGLGAGLSPGAVAGMPGGSAGAMNSMTAAGVTAMGTALSPSGMGAMGAQQAASMNGLGPYAAAMNPCMSPMAYAPSNLGRSRAGGGGDAKTFKRSYPHAKPPYSYISLITMAIQQAPSKMLTLSEIYQWIMDLFPYYRQNQQRWQNSIRHSLSFNDCFVKVARSPDKPGKGSYWTLHPDSGNMFENGCYLRRQKRFKCEKQPGAGGGGGSGSGGSGAKGGPESRKDPSGASNPSADSPLHRGVHGKTGQLEGAPAPGPAASPQTLDHSGATATGGASELKTPASSTAPPISSGPGALASVPASHPAHGLAPHESQLHLKGDPHYSFNHPFSINNLMSSSEQQHKLDFKAYEQALQYSPYGSTLPASLPLGSASVTTRSPIEPSALEPAYYQGVYSRPVLNTS [FOXA1]	0.0934	0.392
MAMQEKYPTEGISHVTSPSSDVIQKGSSLGTEWQTPVISEPFRSRFSRCSSVADSGDTAIGTSCSDIAEDFCSSSGSPPFQPIKSHVTIPTAHVMPSTLGTSPAKPNSTPVGPSSSKLPLSGLAESVGMTRNGDLGAMKHSPGLSRDLMYFSGATGENGIEQSWFPAVGHERQEEARKFDIPSMESTLNQSAMMETLYSDPHHRVRFHNPRTSTSKELYRVLPEAKKAPGSGAVFERNGPHSNSSGVLPLGLQPAPGLSKPLPSQVWQPSPDTWHPREQSCELSTCRQQLELIRLQMEQMQLQNGAICHHPAAFGPSLPILEPAQWISILNSNEHLLKEKELLIDKQRKHISQLEQKVRESELQVHSALLGRPAPFGDVCLLRLQELQRENTFLRAQFAQKTEALSREKIDLEKKLSASEVEVQLIRESLKVALQKHSEEVKKQEERVKGRDKHINNLKKKCQKESEQNREKQQRIETLERYLADLPTLEDHQKQSQQLKDSELKSTELQEKVTELESLLEETQAICREKEIQLESLRQREAEFSSAGHSLQDKQSVEETSGEGPEVEMESWQKRYDSLQKIVEKQQQKMDQLRSQVQSLEQEVAQEEGTSQALREEAQRRDSALQQLRTAVKELSVQNQDLIEKNLTLQEHLRQAQPGSPPSPDTAQLALELHQELASCLQDLQAVCSIVTQRAQGHDPNLSLLLGIHSAQHPETQLDLQKPDVIKRKLEEVQQLRRDIEDLRTTMSDRYAQDMGENCVTQ [CEP85]	-0.194	0.35
MASTRSIELEHFEERDKRPRPGSRRGAPSSSGGSSSSGPKGNGLIPSPAHSAHCSFYRTRTLQALSSEKKAKKARFYRNGDRYFKGLVFAISSDRFRSFDALLIELTRSLSDNVNLPQGVRTIYTIDGSRKVTSLDELLEGESYVCASNEPFRKVDYTKNINPNWSVNIKGGTSRALAAASSVKSEVKESKDFIKPKLVTVIRSGVKPRKAVRILLNKKTAHSFEQVLTDITEAIKLDSGVVKRLCTLDGKQVTCLQDFFGDDDVFIACGPEKFRYAQDDFVLDHSECRVLKSSYSRSSAVKYSGSKSPGPSRRSKSPASVNGTPSSQLSTPKSTKSSSSSPTSPGSFRGLKQISAHGRSSSNVNGGPELDRCISPEGVNGNRCSESSTLLEKYKIGKVIGDGNFAVVKECIDRSTGKEFALKIIDKAKCCGKEHLIENEVSILRRVKHPNIIMLVEEMETATELFLVMELVKGGDLFDAITSSTKYTERDGSAMVYNLANALRYLHGLSIVHRDIKPENLLVCEYPDGTKSLKLGDFGLATVVEGPLYTVCGTPTYVAPEIIAETGYGLKVDIWAAGVITYILLCGFPPFRSENNLQEDLFDQILAGKLEFPAPYWDNITDSAKELISQMLQVNVEARCTAGQILSHPWVSDDASQENNMQAEVTGKLKQHFNNALPKQNSTTTGVSVIMNTALDKEGQIFCSKHCQDSGRPGMEPISPVPPSVEEIPVPGEAVPAPTPPESPTPHPPPAAPGGERAGTWRRHRD [DCLK2]	-0.0347	-0.0668
MGHPPLEFSDCYLDSPDFRERLKCYEQELERTNKFIKDVIKDGNALISAMRNYSSAVQKFSQTLQSFQFDFIGDTLTDDEINIAESFKEFAELLNEVENERMMMVHNASDLLIKPLENFRKEQIGFTKERKKKFEKDGERFYSLLDRHLHLSSKKKESQLQEADLQVDKERHNFFESSLDYVYQIQEVQESKKFNIVEPVLAFLHSLFISNSLTVELTQDFLPYKQQLQLSLQNTRNHFSSTREEMEELKKRMKEAPQTCKLPGQPTIEGYLYTQEKWALGISWVKYYCQYEKETKTLTMTPMEQKPGAKQGPLDLTLKYCVRRKTESIDKRFCFDIETNERPGTITLQALSEANRRLWMEAMDGKEPIYHSPITKQQEMELNEVGFKFVRKCINIIETKGIKTEGLYRTVGSNIQVQKLLNAFFDPKCPGDVDFHNSDWDIKTITSSLKFYLRNLSEPVMTYRLHKELVSAAKSDNLDYRLGAIHSLVYKLPEKNREMLELLIRHLVNVCEHSKENLMTPSNMGVIFGPTLMRAQEDTVAAMMNIKFQNIVVEILIEHFGKIYLGPPEESAAPPVPPPRVTARRHKPITISKRLLRERTVFYTSSLDESEDEIQHQTPNGTITSSIEPPKPPQHPKLPIQRSGETDPGRKSPSRPILDGKLEPCPEVDVGKLVSRLQDGGTKITPKATNGPMPGSGPTKTPSFHIKRPAPRPLAHHKEGDADSFSKVRPPGEKPTIIRPPVRPPDPPCRAATPQKPEPKPDIVAGNAGEITSSVVASRTRFFETASRKTGSSQGRLPGDES [OPHN1]	-0.0995	-0.348
